Patent publication EP4786493A1

Molecular target: murine Claudin 18.2 expressed on HEK293 cells (murine) (UniProt P56857)
Assay: flow cytometry on HEK293 cells expressing murine Claudin 18.2

murine Claudin 18.2 expressed on HEK293 cells (murine), sequence (P56857 whole entry): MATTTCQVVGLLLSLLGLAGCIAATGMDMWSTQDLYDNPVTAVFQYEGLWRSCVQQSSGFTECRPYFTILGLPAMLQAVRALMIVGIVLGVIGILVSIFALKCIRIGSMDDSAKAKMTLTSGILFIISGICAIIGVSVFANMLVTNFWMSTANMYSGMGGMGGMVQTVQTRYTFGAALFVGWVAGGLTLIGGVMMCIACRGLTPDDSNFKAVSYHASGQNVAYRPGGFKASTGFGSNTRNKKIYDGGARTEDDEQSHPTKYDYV

Binder	EC50 [nM]
AHP30826 (antibody, V domains shown) VH: QVQLQQSGGGSVQAGGSLRLSCAASGTILSINAMGWYRQAPGKQRELVATITTGGNANYAHSVKGRFTISRDNAKNTVYLQMNNLKPEDTAVYYCNAEQVVVGFLQAYDVWGQGTTVTVSS VL: DVVMTQSPLSLPVTLGQAASISCRSSQSLVHGDGNTYLNWIQQRPGQSPRRLIYKVSNRDSGVPDRFSGSGSGTDFTLKISRVEAEDVGVYYCMQGTHWPSTFGPGTKVDIK	3.44
AHP29153 (antibody, V domains shown) VH: QLQQVESGGGLVQPGGSLRLSCAASRNIGILSTMGWYRQAPGKQRELVATITRGGSTNYGEFVKGRFTISRDNAKNTVYLQMNSLKPEDTAVYYCNVDESWLGTQSYWGRGTTVTVSS VL: QSVLTQPASVSGSPGQSITISCTGTSSDVGGYKYVSWYQQPPGKAPKLIIYEVTKRPSGVPDRFSGSKSGNTASLTVSGLQAEDEADYYCLSYAGSNNVFGTGTKLTVL	4.45
AHP31548 (antibody, V domains shown) VH: QVQLMQSGGGLVQPGGSLRLSCAASRNIGILSTMGWYRQAPGKQRELVATITRGGSTNYGEFVKGRFTISRDNAKNTVYLQMNSLKPEDTAVYYCNVDESWLGTQSYWGRGTTVTVSS VL: QSALTQPPSASGSPGQSVTISCTGTSSDIGTYNFVSWYQQHPGKAPKLIIYEVSKRPSGVPDRFSGSKSGNTASLTVSGLQAEDEADYYCKSYPRVFGTGTKLTAL	1.67
AHP32982 (antibody, V domains shown) VH: QVQLVQSGGGLVQPGGSLRLSCAASRNIGILSTMGWYRQAPGKQRELVATITRGGSTNYGEFVKGRFTISRDNAKNTVYLQMNSLKPEDTAVYYCNVDESWLGTQSYWGRGPLVTVSS VL: DIVMTQSPSSVSASVGDRVTITCRASQGISSWLAWYQQKPGKAPKLLIYAASSLQSGVPSRFSGSGSGTDFTLTISSLQPEDFATYYCQQANSFPLTFGGGTKVEIK	4.03

Binders with a lower EC50, results first:

EC50 [nM]	Binder
0.772	AHP32919 (antibody, V domains shown) VH: QVQLQESGGGVVQPGGSLRLSCAASQSIGLLSTMGWYRQAAGKQRELVATITRGGSTNYGEFVKGRFTISRDNAKNTVYLQMNSLKPEDTAVYYCTADESWLGTQSYWGRGTRVTVSS VL: QAGLTQPPSASGTPGQGVTISCSGSSSNIGSNSVNWYQQLPGTAPKLLMHSNNERSSGVPDRFSGSKSGSSASLAISGLQSEDAADYFCGAWDDSLNGYVFGTGTKLTVL
0.728	AHP32913 (antibody, V domains shown) VH: QVQLMQSGGGLVQPGGSLRLSCAASRNIGILSTMGWYRQAPGKQRELVATITRGGSTNYGEFVKGRFTISRDNAKNTVYLQMNSLKPEDTAVYYCNVDESWLGTQSYWGRGTQVTVSS VL: QAVVTQEPSLTVSPGGTVTLTCGSSTGPVTSGHYPHWYQQKPGQAPKTLIFDTSHKHPWTPAQFSGSLLGGKAALTLSGAHPEDEAEYYCLLSYSGVRVFGGGTQLIIL
